For experiment [1], the target named is T1, synthetic phytase Fus5#2 (mature) (synthetic fusion of Hafnia sp. LU11047 phytase and Yersinia mollaretii ATCC 43969 phytase fragments).
T1 sequence: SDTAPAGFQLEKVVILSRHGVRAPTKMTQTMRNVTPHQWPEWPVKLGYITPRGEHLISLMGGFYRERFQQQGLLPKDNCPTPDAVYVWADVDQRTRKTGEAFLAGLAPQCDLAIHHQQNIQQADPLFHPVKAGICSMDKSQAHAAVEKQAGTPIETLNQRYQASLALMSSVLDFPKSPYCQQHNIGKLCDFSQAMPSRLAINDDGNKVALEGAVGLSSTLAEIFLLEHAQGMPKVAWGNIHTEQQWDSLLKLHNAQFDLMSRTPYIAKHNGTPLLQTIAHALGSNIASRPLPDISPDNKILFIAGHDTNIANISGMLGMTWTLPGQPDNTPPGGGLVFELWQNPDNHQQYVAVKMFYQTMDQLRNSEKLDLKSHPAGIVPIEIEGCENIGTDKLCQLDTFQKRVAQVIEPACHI

Experiment [2] concerns the target Natuphos (Natuphos 10000L, BASF), commercial phytase.

“pepsin (Sigma P-7000, 445 U/mg) (from UniProt P00791) (enzyme)”: the Stability to pepsin (residual phytase activity after 30 min at 37 C with 10 mg/ml pepsin, pH 2, relative to a pH 5.5 reference) in experiment [1] was determined as 1%; in experiment [2] it was 20%.

Values taken from patent publication US9127260B2.
